# Bridge positions count the residues as written; N and C are the ends. Ends that are not written are not given here.
# T1: cathepsin G (human, UniProt P08311)
# T1 chain: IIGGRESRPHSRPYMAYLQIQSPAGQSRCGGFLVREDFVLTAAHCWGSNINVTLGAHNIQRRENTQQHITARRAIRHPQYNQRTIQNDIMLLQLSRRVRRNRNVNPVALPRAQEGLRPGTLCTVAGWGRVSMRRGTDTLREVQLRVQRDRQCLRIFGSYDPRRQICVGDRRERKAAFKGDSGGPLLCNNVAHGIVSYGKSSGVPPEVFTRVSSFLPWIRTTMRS
# How the values were obtained:
# hK2 = hK2 (human, UniProt P20151); assay: other, IFMA
# PSA-API complex = PSA-API complex (human, UniProt P07288); assay: other, IFMA
# cathepsin G = target: T1, cathepsin G; assay: other, IFMA
# trypsin = assay: other, IFMA
# PSA-ACT complex = PSA-ACT complex (human, UniProt P07288); assay: other, IFMA
# PSA [1] = target: T2, PSA (human, UniProt P07288); assay: SPR, 30 uM Zn2+
# PSA [2] = target: T2, PSA; assay: competition, IFMA with free PSA
# PSA [3] = target: T2, PSA; assay: SPR
# PSA [4] = target: T2, PSA; assay: SPR, 0 uM Zn2+
# PSA [5] = target: T2, PSA; assay: SPR, 1 uM Zn2+
# PSA [6] = target: T2, PSA; assay: SPR, 10 uM Zn2+
# PSA [7] = target: T2, PSA; assay: other, IFMA
# Sequence of hK2 (P20151 25-261): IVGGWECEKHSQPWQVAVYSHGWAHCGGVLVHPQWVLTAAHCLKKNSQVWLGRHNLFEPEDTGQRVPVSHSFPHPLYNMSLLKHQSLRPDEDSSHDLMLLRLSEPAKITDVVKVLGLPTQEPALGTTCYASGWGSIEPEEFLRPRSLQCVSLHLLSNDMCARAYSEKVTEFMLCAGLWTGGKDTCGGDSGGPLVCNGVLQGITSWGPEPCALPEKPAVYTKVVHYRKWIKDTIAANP
Binder,binding result (hK2),binding result (PSA-API complex),binding result (cathepsin G),binding result (trypsin),binding result (PSA-ACT complex),Kd (PSA [1]) [nM],IC50 (PSA [2]) [nM],Kd (PSA [3]) [µM],Kd (PSA [4]) [µM],Kd (PSA [5]) [nM],Kd (PSA [6]) [nM],binding result (PSA [7])
"CVAYCIEHHCWTC (disulfide 1-13, 5-10; also: GST fusion, site not given here) [GST-C-4]",no binding,no binding,no binding,no binding,no binding,860,0.7,–,–,–,–,–
"CVFAHNYDYLVC (disulfide 1-12 (inferred); also: GST fusion, site not given here) [GST-B-2]",no binding,no binding,no binding,no binding,no binding,800,1,3.5,3.5,3100,600,–
"CVFTSDYAFC (disulfide 1-10 (inferred); also: GST fusion, site not given here) [GST-A-1]",no binding,no binding,no binding,no binding,no binding,1000,3.3,7.8,7.8,2600,1400,–
"CLSTCAQSCRISC (also: GST fusion, disulfide pairing not given here) [GST-D-1]",–,–,–,–,–,–,–,–,–,–,–,no binding
